Results published in patent US20200055935A1 (published 2020).

B1: anti-TIM-3 antibody clone 1B9 (antibody, V domains shown)
VH: QVQLQQWGAGLLKPSETLSLTCAVYGGSFSGYYWSWIRQPPGKGLEWIGEINHSGSTNYNPSLKSRVTISVDTSKNQFSLKLSSVTAADTAVYYCARGYVAGSDAWGQGTLVTVSS
VL: QSVLTQPPSVSAAPGQKVTISCSGSSSNIGNNYVSWYQQLPGTAPKLLIYGNNWRPSGIPDRFSGSKSGTSATLGITGLQTGDEADYYCEAWDYYVAAGYFGGGTKLTVL
B2: anti-TIM-3 antibody clone 1H10 (antibody, V domains shown)
VH: QVQLQQWGAGLLKPSETLSLTCAVYGGSFSGYYWSWIRQPPGKGLEWIGEINHSGSTNYNPSLKSRVTISVDTSKNQFSLKLSSVTAADTAVYYCARGYVAGFDSWGQGTLVTVSS
VL: QSVLTQPPSVSAAPGQKVTISCSGSSSNIGNNYVSWYQQLPGTAPKLLIYGNNWRPSGIPDRFSGSKSGTSATLGITGLQTGDEADYYCDSWDYDYAAGVFGGGTKLTVL
B3: anti-TIM-3 antibody clone 1D9 (antibody, V domains shown)
VH: QVQLQQWGAGLLKPSETLSLTCAVYGGSFSGYYWSWIRQPPGKGLEWIGEINHSGSTNYNPSLKSRVTISVDTSKNQFSLKLSSVTAADTAVYYCARGYYAGDDYWGQGTLVTVSS
VL: QSVLTQPPSVSAAPGQKVTISCSGSSSNIGNNYVSWYQQLPGTAPKLLIYGNNWRPSGIPDRFSGSKSGTSATLGITGLQTGDEADYYCEAWDSAYAAGSFGGGTKLTVL
B4: anti-TIM-3 antibody clone 2F4 (antibody, V domains shown)
VH: QVQLQQWGAGLLKPSETLSLTCAVYGGSFSGYYWSWIRQPPGKGLEWIGEINHSGSTNYNPSLKSRVTISVDTSKNQFSLKLSSVTAADTAVYYCARGYVAGSDAWGQGTLVTVSS
VL: QSVLTQPPSVSAAPGQKVTISCSGSSSNIGNNYVSWYQQLPGTAPKLLIYGNNWRPSGIPDRFSGSKSGTSATLGITGLQTGDEADYYCESWDYDYASGVFGGGTKLTVL
B5: anti-TIM-3 antibody clone 1F4 (antibody, V domains shown)
VH: QVQLQQWGAGLLKPSETLSLTCAVYGGSFSGYYWSWIRQPPGKGLEWIGEINHSGSTNYNPSLKSRVTISVDTSKNQFSLKLSSVTAADTAVYYCARGYVAGYDYWGQGTLVTVSS
VL: QSVLTQPPSVSAAPGQKVTISCSGSSSNIGNNYVSWYQQLPGTAPKLLIYGNNWRPSGIPDRFSGSKSGTSATLGITGLQTGDEADYYCDSWDAALSAGVFGGGTKLTVL
B6: anti-TIM-3 antibody clone 2C7 (antibody, V domains shown)
VH: QVQLQQWGAGLLKPSETLSLTCAVYGGSFSGYYWSWIRQPPGKGLEWIGEINHSGSTNYNPSLKSRVTISVDTSKNQFSLKLSSVTAADTAVYYCARGYVAGYDYWGQGTLVTVSS
VL: QSVLTQPPSVSAAPGQKVTISCSGSSSNIGNNYVSWYQQLPGTAPKLLIYGNNWRPSGIPDRFSGSKSGTSATLGITGLQTGDEADYYCDSWDSYLAAGVFGGGTKLTVL
B7: anti-TIM-3 antibody clone 2G6 (antibody, V domains shown)
VH: QVQLQQWGAGLLKPSETLSLTCAVYGGSFSGYYWSWIRQPPGKGLEWIGEINHSGSTNYNPSLKSRVTISVDTSKNQFSLKLSSVTAADTAVYYCARGYVAGFDSWGQGTLVTVSS
VL: QSVLTQPPSVSAAPGQKVTISCSGSSSNIGNNYVSWYQQLPGTAPKLLIYGNNWRPSGIPDRFSGSKSGTSATLGITGLQTGDEADYYCDSWDSSDSSGVFGGGTKLTVL
B8: anti-TIM-3 antibody clone 1H9 (antibody, V domains shown)
VH: QVQLQQWGAGLLKPSETLSLTCAVYGGSFSGYYWSWIRQPPGKGLEWIGEINHSGSTNYNPSLKSRVTISVDTSKNQFSLKLSSVTAADTAVYYCARGYVAGFDDWGQGTLVTVSS
VL: QSVLTQPPSVSAAPGQKVTISCSGSSSNIGNNYVSWYQQLPGTAPKLLIYGNNWRPSGIPDRFSGSKSGTSATLGITGLQTGDEADYYCDSWDSADASGVFGGGTKLTVL

Legend:
[1] = target: T1, human TIM-3 coupled to Fc (human, UniProt Q8TDQ0 22-200); assay: SPR; culture supernatant
[2] = target: T1, human TIM-3 coupled to Fc; assay: SPR; crude periplasmic extract

Binder	koff [1] [s⁻¹]	koff [2] [s⁻¹]
B1	4.3e-05	2.8e-05
B2	2.9e-05	2.3e-05
B3	0.00018	0.00018
B4	8.7e-05	0.00014
B5	0.0003	0.00029
B6	0.00021	0.00019
B7	0.00013	0.00022
B8	0.00016	7e-05
